# Assays:
# [1] = biological target: catalytic domain of the soluble guanylate cyclase CYG12 from Chlamydomonas reinhardtii (Chlamydomonas reinhardtii); assay: crystal structure; sitting-drop vapor diffusion, 20°C; 0.1 M sodium cacodylate pH 5.0-6.4, 42-62% saturated (NH4)2HPO4; molecular replacement; 2.55 Å; one dimer per asymmetric unit
# [2] = substrate: Nc1nc2c(ncn2[C@@H]2O[C@H](COP(=O)(O)OP(=O)(O)OP(=O)(O)O)[C@@H](O)[C@H]2O)c(=O)[nH]1; assay: cGMP formation, enzyme immunoassay; Hill fit; type: biochemical, Chlamydomonas reinhardtii; conditions: 4 mM MnCl2, pH 7.5, 24 °C, 5 mM dithiothreitol, 2 min, positive cooperativity, Hill coefficient 1.49 ± 0.16
Molecule,stoichiometry N [1],K0.5 [2] [µM]
catalytic domain of the soluble guanylate cyclase CYG12 from Chlamydomonas reinhardtii (domain or fragment),2,
"guanylate cyclase catalytic domain of CYG12 (Chlamydomonas reinhardtii) (protein, catalytic domain, residues 468-655 of 991; His-SMT3 (SUMO) fusion cleaved off; expressed in E. coli Tuner(DE3); homodimer) APAQEHPEATVLFSDIVGFTEIASRSSPLEVCSLLDELYQRFDAAIEEYPQLYKVETIGDAYMVVCNVTVPCDDHADVLLEFALRMHEEASRVASSLGEPVRIRVGMHSGPVVAGVVGRKMPRFCLFGDTVNTASRMESHGEAGQIHISEACYCCLRSKERFEIRERGNITVKGKGTMRTYLLSPLER",,269 ± 26

# Reference: PMC2576301, “The crystal structure of the catalytic domain of a eukaryotic guanylate cyclase” (BMC Structural Biology, 2008)
